Data reported in the supplement of paper PMC10567573.

B1: YPEL3 (parent)
chain: SKPKTFQAYLDDCHRRYSCAHCRA
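Also: lentivirally expressed fusions sorted by FACS into six bins by GFP to DsRed ratio, PSI derived from sequencing read proportions per bin multiplied by bin number.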

Variants of: B1
Test: protein stability index of a GFP-peptide fusion (GPS, HEK-293T) (PSI 1-6); higher = more stable
Conditions: c terminus: a fixed tail appended
SKPKTFTAYLDDCHRRYSCAHCRA showed a protein stability index of 1.93.
SKPKTFCAYLDDCHRRYSCAHCRA gave a protein stability index of 1.96.
SKPKTFSAYLDDCHRRYSCAHCRA gave a protein stability index of 1.89.
Work on SKPKTFFAYLDDCHRRYSCAHCRA yielded a protein stability index of 3.06.
SKPKTFGAYLDDCHRRYSCAHCRA gave a protein stability index of 2.22.
Work on SKPKTFWAYLDDCHRRYSCAHCRA yielded a protein stability index of 1.73.
For SKPKTFDAYLDDCHRRYSCAHCRA, the protein stability index was 2.68.
In the case of SKPKTFKAYLDDCHRRYSCAHCRA, the protein stability index is reported as 2.65.
Work on SKPKTFRAYLDDCHRRYSCAHCRA yielded a protein stability index of 2.02.
In the case of SKPKTFNAYLDDCHRRYSCAHCRA, the protein stability index is reported as 2.04.
Work on SKPKTFHAYLDDCHRRYSCAHCRA yielded a protein stability index of 2.2.
With SKPKTFYAYLDDCHRRYSCAHCRA the protein stability index was 1.85.
SKPKTFLAYLDDCHRRYSCAHCRA gave a protein stability index of 1.76.
SKPKTFVAYLDDCHRRYSCAHCRA showed a protein stability index of 2.18.
With SKPKTFMAYLDDCHRRYSCAHCRA the protein stability index was 1.8.
For SKPKTFPAYLDDCHRRYSCAHCRA, the protein stability index was 2.8.
Work on SKPKTFEAYLDDCHRRYSCAHCRA yielded a protein stability index of 2.16.
Work on SKPKTFIAYLDDCHRRYSCAHCRA yielded a protein stability index of 1.4.
SKPKTFAAYLDDCHRRYSCAHCRA gave a protein stability index of 2.39.
SKPHTFQAYLDDCHRRYSCAHCRA gave a protein stability index of 2.59.
For SKPITFQAYLDDCHRRYSCAHCRA, the protein stability index was 1.6.
Variant SKPQTFQAYLDDCHRRYSCAHCRA has a protein stability index of 1.8.
With SKPTTFQAYLDDCHRRYSCAHCRA the protein stability index was 1.74.
SKPYTFQAYLDDCHRRYSCAHCRA showed a protein stability index of 2.04.
With SKPETFQAYLDDCHRRYSCAHCRA the protein stability index was 2.09.
In the case of SKPFTFQAYLDDCHRRYSCAHCRA, the protein stability index is reported as 1.72.
For SKPLTFQAYLDDCHRRYSCAHCRA, the protein stability index was 2.42.
SKPCTFQAYLDDCHRRYSCAHCRA gave a protein stability index of 1.86.
With SKPNTFQAYLDDCHRRYSCAHCRA the protein stability index was 1.87.
SKPPTFQAYLDDCHRRYSCAHCRA showed a protein stability index of 1.9.
Variant SKPRTFQAYLDDCHRRYSCAHCRA has a protein stability index of 1.86.
With SKPVTFQAYLDDCHRRYSCAHCRA the protein stability index was 2.57.
For SKPWTFQAYLDDCHRRYSCAHCRA, the protein stability index was 1.59.
With SKPATFQAYLDDCHRRYSCAHCRA the protein stability index was 2.47.
For SKPDTFQAYLDDCHRRYSCAHCRA, the protein stability index was 1.86.
In the case of SKPSTFQAYLDDCHRRYSCAHCRA, the protein stability index is reported as 2.5.
Variant SKPMTFQAYLDDCHRRYSCAHCRA has a protein stability index of 2.28.
SKPGTFQAYLDDCHRRYSCAHCRA showed a protein stability index of 2.71.
For SKSKTFQAYLDDCHRRYSCAHCRA, the protein stability index was 1.82.
Work on SKRKTFQAYLDDCHRRYSCAHCRA yielded a protein stability index of 2.05.
SKTKTFQAYLDDCHRRYSCAHCRA gave a protein stability index of 1.92.
With SKWKTFQAYLDDCHRRYSCAHCRA the protein stability index was 1.8.
SKGKTFQAYLDDCHRRYSCAHCRA showed a protein stability index of 2.13.
Variant SKAKTFQAYLDDCHRRYSCAHCRA has a protein stability index of 1.66.
Work on SKYKTFQAYLDDCHRRYSCAHCRA yielded a protein stability index of 1.72.
Variant SKLKTFQAYLDDCHRRYSCAHCRA has a protein stability index of 2.13.
SKDKTFQAYLDDCHRRYSCAHCRA gave a protein stability index of 2.11.
SKVKTFQAYLDDCHRRYSCAHCRA showed a protein stability index of 2.
In the case of SKNKTFQAYLDDCHRRYSCAHCRA, the protein stability index is reported as 2.26.
Work on SKCKTFQAYLDDCHRRYSCAHCRA yielded a protein stability index of 2.6.
In the case of SKQKTFQAYLDDCHRRYSCAHCRA, the protein stability index is reported as 1.97.
With SKIKTFQAYLDDCHRRYSCAHCRA the protein stability index was 2.19.
For SKKKTFQAYLDDCHRRYSCAHCRA, the protein stability index was 2.29.
In the case of SKMKTFQAYLDDCHRRYSCAHCRA, the protein stability index is reported as 3.01.
SKHKTFQAYLDDCHRRYSCAHCRA showed a protein stability index of 1.54.
SKFKTFQAYLDDCHRRYSCAHCRA showed a protein stability index of 3.23.
With SKEKTFQAYLDDCHRRYSCAHCRA the protein stability index was 2.31.
With SKPKTVQAYLDDCHRRYSCAHCRA the protein stability index was 2.81.
For SKPKTGQAYLDDCHRRYSCAHCRA, the protein stability index was 3.57.
SKPKTAQAYLDDCHRRYSCAHCRA gave a protein stability index of 2.95.
SKPKTSQAYLDDCHRRYSCAHCRA gave a protein stability index of 3.3.
In the case of SKPKTCQAYLDDCHRRYSCAHCRA, the protein stability index is reported as 2.84.
SKPKTRQAYLDDCHRRYSCAHCRA gave a protein stability index of 3.21.
Variant SKPKTMQAYLDDCHRRYSCAHCRA has a protein stability index of 2.94.
SKPKTIQAYLDDCHRRYSCAHCRA gave a protein stability index of 2.17.
In the case of SKPKTEQAYLDDCHRRYSCAHCRA, the protein stability index is reported as 3.4.
SKPKTLQAYLDDCHRRYSCAHCRA gave a protein stability index of 2.27.
Work on SKPKTNQAYLDDCHRRYSCAHCRA yielded a protein stability index of 3.15.
In the case of SKPKTKQAYLDDCHRRYSCAHCRA, the protein stability index is reported as 3.23.
For SKPKTQQAYLDDCHRRYSCAHCRA, the protein stability index was 3.21.
SKPKTHQAYLDDCHRRYSCAHCRA gave a protein stability index of 2.71.
Variant SKPKTPQAYLDDCHRRYSCAHCRA has a protein stability index of 2.96.
In the case of SKPKTDQAYLDDCHRRYSCAHCRA, the protein stability index is reported as 3.54.
SKPKTYQAYLDDCHRRYSCAHCRA showed a protein stability index of 2.2.
For SKPKTWQAYLDDCHRRYSCAHCRA, the protein stability index was 2.44.
Variant SKPKTTQAYLDDCHRRYSCAHCRA has a protein stability index of 3.23.
PKPKTFQAYLDDCHRRYSCAHCRA gave a protein stability index of 2.67.
Work on DKPKTFQAYLDDCHRRYSCAHCRA yielded a protein stability index of 2.21.
Variant NKPKTFQAYLDDCHRRYSCAHCRA has a protein stability index of 2.04.
For HKPKTFQAYLDDCHRRYSCAHCRA, the protein stability index was 2.07.
CKPKTFQAYLDDCHRRYSCAHCRA gave a protein stability index of 2.29.
FKPKTFQAYLDDCHRRYSCAHCRA gave a protein stability index of 1.67.
With YKPKTFQAYLDDCHRRYSCAHCRA the protein stability index was 1.99.
For IKPKTFQAYLDDCHRRYSCAHCRA, the protein stability index was 2.81.
For MKPKTFQAYLDDCHRRYSCAHCRA, the protein stability index was 2.
GKPKTFQAYLDDCHRRYSCAHCRA showed a protein stability index of 2.07.
In the case of QKPKTFQAYLDDCHRRYSCAHCRA, the protein stability index is reported as 2.08.
With VKPKTFQAYLDDCHRRYSCAHCRA the protein stability index was 1.38.
Work on AKPKTFQAYLDDCHRRYSCAHCRA yielded a protein stability index of 2.11.
Variant EKPKTFQAYLDDCHRRYSCAHCRA has a protein stability index of 1.52.
With WKPKTFQAYLDDCHRRYSCAHCRA the protein stability index was 1.66.
RKPKTFQAYLDDCHRRYSCAHCRA gave a protein stability index of 1.92.
With LKPKTFQAYLDDCHRRYSCAHCRA the protein stability index was 3.27.
For KKPKTFQAYLDDCHRRYSCAHCRA, the protein stability index was 1.98.
